We go through nine sequences from the supplement of paper PMC11246515.

The data set in a line: total protein half-life in vivo (active degradation + dilution); higher = more stable protein.
The mark [1] stands for this setting: E. coli NCM3722 delta-clpP delta-lon delta-hslV, growth: N-lim chemostat, doubling time 6 h.
Setting [2] is: E. coli NCM3722 delta-clpP, growth: N-lim chemostat, doubling time 6 h.
Setting [3] is: E. coli NCM3722 delta-hslV, growth: N-lim chemostat, doubling time 6 h.
[4] abbreviates: E. coli NCM3722 delta-lon, growth: N-lim chemostat, doubling time 6 h.
Setting [5] is: E. coli NCM3722 delta-smpB, growth: N-lim chemostat, doubling time 6 h.
The mark [6] stands for this setting: wild type E. coli NCM3722, growth: C-lim chemostat, doubling time 3 h.
[7] abbreviates: wild type E. coli NCM3722, growth: C-lim chemostat, doubling time 6 h.
Setting [8] is: wild type E. coli NCM3722, growth: N-lim chemostat, doubling time 6 h.
[9] abbreviates: wild type E. coli NCM3722, growth: N-lim chemostat, doubling time 12 h.
Where [10] appears, read: wild type E. coli NCM3722, growth: P-lim chemostat, doubling time 6 h.
Setting [11] is: wild type E. coli NCM3722, growth: P-lim chemostat, doubling time 12 h.
[12] abbreviates: wild type E. coli NCM3722, growth: C-lim chemostat, doubling time 12 h.

± gives the standard deviation of the averaged measurements.

Regarding “MRGEFYQQLTNDLETARAEGLFKEERIITSAQQADITVADGSHVINFCANNYLGLANHPDLIAAAKAGMDSHGFGMASVRFICGTQDSHKELEQKLAAFLGMEDAILYSSCFDANGGLFETLLGAEDAIISDALNHASIIDGVRLCKAKRYRYANNDMQELEARLKEAREAGARHVLIATDGVFSMDGVIANLKGVCDLADKYDALVMVDDSHAVGFVGENGRGSHEYCDVMGRVDIITGTLGKALGGASGGYTAARKEVVEWLRQRSRPYLFSNSLAPAIVAASIKVLEMVEAGSELRDRLWANARQFREQMSAAGFTLAGADHAIIPVMLGDAVVAQKFARELQKEGIYVTGFFYPVVPKGQARIRTQMSAAHTPEQITRAVEAFTRIGKQLGVIA [P0AB77]”, the “total protein half-life in vivo” value was determined as 5.66 ± 1.2 h under setting [1]; 4.59 ± 0.16 h under setting [2]; 4.78 ± 0.57 h under setting [3]; 4.56 ± 0.44 h under setting [4]; 4.39 ± 0.082 h under setting [5]; 3.46 ± 0.59 h under setting [6]. Further, the “total protein half-life in vivo” value under setting [7] is 5.66 ± 0.2 h; the “total protein half-life in vivo” value under setting [8] was found to be 4.55 ± 0.25 h; the “total protein half-life in vivo” value under setting [9] came out at 6.84 ± 0.5 h; the “total protein half-life in vivo” value under setting [10] stood at 6.03 ± 0.29 h; the “total protein half-life in vivo” value under setting [11] worked out at 11.11 ± 0.03 h.
In the case of “MTTRLTRWLTTLDNFEAKMAQLPAVRRYGRLTRATGLVLEATGLQLPLGATCVIERQNGSETHEVESEVVGFNGQRLFLMPLEEVEGVLPGARVYAKNISAEGLQSGKQLPLGPALLGRVLDGSGKPLDGLPSPDTTETGALITPPFNPLQRTPIEHVLDTGVRPINALLTVGRGQRMGLFAGSGVGKSVLLGMMARYTRADVIVVGLIGERGREVKDFIENILGAEGRARSVVIAAPADVSPLLRMQGAAYATRIAEDFRDRGQHVLLIMDSLTRYAMAQREIALAIGEPPATKGYPPSVFAKLPALVERAGNGISGGGSITAFYTVLTEGDDQQDPIADSARAILDGHIVLSRRLAEAGHYPAIDIEASISRAMTALISEQHYARVRTFKQLLSSFQRNRDLVSVGAYAKGSDPMLDKAIALWPQLEGYLQQGIFERADWEASLQGLERIFPTVS”, the “total protein half-life in vivo” value by setting is: under setting [1], 3.91 h; under setting [6], 2.04 ± 0.092 h; under setting [7], 3.72 h; under setting [12], 4.73 ± 0.2 h.
Take “MLIIETLPLLRQQIRRLRMEGKRVALVPTMGNLHDGHMKLVDEAKARADVVVVSIFVNPMQFDRPEDLARYPRTLQEDCEKLNKRKVDLVFAPSVKEIYPNGTETHTYVDVPGLSTMLEGASRPGHFRGVSTIVSKLFNLVQPDIACFGEKDFQQLALIRKMVADMGFDIEIVGVPIMRAKDGLALSSRNGYLTAEQRKIAPGLYKVLSSIADKLQAGERDLDEIITIAGQELNEKGFRADDIQIRDADTLLEVSETSKRAVILVAAWLGDARLIDNKMVELA”: the “total protein half-life in vivo” value amounted to 5.42 ± 0.33 h under setting [1]; 5.17 ± 0.93 h under setting [2]; 4.941 ± 0.045 h under setting [3]; 5.34 ± 0.1 h under setting [4]; 4.98 ± 0.26 h under setting [5]; 3.1 ± 0.28 h under setting [6]. The “total protein half-life in vivo” value is, setting by setting: under setting [7], 5.5 ± 0.056 h; under setting [12], 11.8 ± 2.4 h; under setting [8], 4.868 ± 0.016 h; under setting [9], 8.38 ± 0.16 h; under setting [10], 5.774 ± 0.017 h; under setting [11], 12.5 ± 0.45 h.
For the sequence “MQYKDENGVNEPSRRRLLKVIGALALAGSCPVAHAQKTQSAPGTLSPDARNEKQPFYGEHQAGILTPQQAAMMLVAFDVLASDKADLERLFRLLTQRFAFLTQGGAAPETPNPRLPPLDSGILGGYIAPDNLTITLSVGHSLFDERFGLAPQMPKKLQKMTRFPNDSLDAALCHGDVLLQICANTQDTVIHALRDIIKHTPDLLSVRWKREGFISDHAARSKGKETPINLLGFKDGTANPDSQNDKLMQKVVWVTADQQEPAWTIGGSYQAVRLIQFRVEFWDRTPLKEQQTIFGRDKQTGAPLGMQHEHDVPDYASDPEGKVIALDSHIRLANPRTAESESSLMLRRGYSYSLGVTNSGQLDMGLLFVCYQHDLEKGFLTVQKRLNGEALEEYVKPIGGGYFFALPGVKDANDYFGSALLRV”, the “total protein half-life in vivo” value is, setting by setting: under setting [2], 5.58 h; under setting [5], 5.85 h; under setting [6], 2.17 ± 0.16 h; under setting [7], 4.4 h; under setting [12], 7.71 h.
As for “MATLTTTQTSPSLLGGVVIIGGTIIGAGMFSLPVVMSGAWFFWSMAALIFTWFCMLHSGLMILEANLNYRIGSSFDTITKDLLGKGWNVVNGISIAFVLYILTYAYISASGSILHHTFAEMSLNVPARAAGFGFALLVAFVVWLSTKAVSRMTAIVLGAKVITFFLTFGSLLGHVQPATLFNVAESNASYAPYLLMTLPFCLASFGYHGNVPSLMKYYGKDPKTIVKCLVYGTLMALALYTIWLLATMGNIPRPEFIGIAEKGGNIDVLVQALSGVLNSRSLDLLLVVFSNFAVASSFLGVTLGLFDYLADLFGFDDSAVGRLKTALLTFAPPVVGGLLFPNGFLYAIGYAGLAATIWAAIVPALLARASRKRFGSPKFRVWGGKPMIALILVFGVGNALVHILSSFNLLPVYQ [P0AAD2]”, the “total protein half-life in vivo” value amounted to 2.1 h under setting [1], 0.779 h under setting [3], 0.897 h under setting [5] and 1.97 ± 0.16 h under setting [6].
Turning to “MFIGFDYGTANCSVAVMRDGKPHLLKMENDSTLLPSMLCAPTREAVSEWLYRHHDVPADDDETQALLRRAIRYNREEDIDVTAKSVQFGLSSLAQYIDDPEEVWFVKSPKSFLGASGLKPQQVALFEDLVCAMMLHIRQQAQAQLPEAITQAVIGRPINFQGLGGDEANTQAQGILERAAKRAGFRDVVFQYEPVAAGLDYEATLQEEKRVLVVDIGGGTTDCSLLLMGPQWRSRLDREASLLGHSGCRIGGNDLDIALAFKNLMPLLGMGGETEKGIALPILPWWNAVAINDVPAQSDFYSSANGRLLNDLVRDAREPEKVALLQKVWRQRLSYRLVRSAEECKIALSSVAETRASLPFISNELATLISQRGLESALSQPLTRILEQVQLALDNAQEKPDVIYLTGGSARSPLIKKALAEQLPGIPIAGGDDFGSVTAGLARWAEVVFR”, the “total protein half-life in vivo” value under setting [1] was found to be 4.24 ± 0.21 h; the “total protein half-life in vivo” value under setting [2] is 3.46 ± 0.21 h; the “total protein half-life in vivo” value under setting [3] stood at 3.42 ± 0.99 h; the “total protein half-life in vivo” value under setting [4] came to 3.061 ± 0.019 h; the “total protein half-life in vivo” value under setting [5] stood at 2.69 ± 0.13 h; the “total protein half-life in vivo” value under setting [6] is 2.8 ± 0.11 h. Also, the “total protein half-life in vivo” value was 5.13 ± 0.5 h under setting [7]; 9.46 ± 2.2 h under setting [12]; 3.1 h under setting [8]; 3.87 h under setting [9]; 4.93 ± 0.058 h under setting [10]; 7.96 ± 0.29 h under setting [11].
Turning to “MKMLRDPLFWLIALFVALIFWLPYSQPLFAALFPQLPRPVYQQESFAALALAHFWLVGISSLFAVIIGTGAGIAVTRPWGAEFRPLVETIAAVGQTFPPVAVLAIAVPVIGFGLQPAIIALILYGVLPVLQATLAGLGAIDASVTEVAKGMGMSRGQRVRKVELPLAAPVILAGVRTSVIINIGTATIASTVGASTLGTPIIIGLSGFNTAYVIQGALLVALAAIIADRLFERLVQALSQHAK”, the “total protein half-life in vivo” value under setting [9] came to 5.89 h.
“MKKIICLVITLLMTLPVYAKLTAHEEARINAMLEGLAQKKDLIFVRNGDEHTCYEAVSHLRLKLGNTRNRIDTAEQFIDKVASSSSITGKPYIVKIPGKSDENAQPFLHALIAQTDKTVPAEGN”: the “total protein half-life in vivo” value under setting [12] is 3.18 h.
On to “MGIKQHNGNTKADRLAELKIRSPSIQLIKFGAIGLNAIIFSPLLIAADTGSQYGTNITINDGDRITGDTADPSGNLYGVMTPAGNTPGNINLGNDVTVNVNDASGYAKGIIIQGKNSSLTANRLTVDVVGQTSAIGINLIGDYTHADLGTGSTIKSNDDGIIIGHSSTLTATQFTIENSNGIGLTINDYGTSVDLGSGSKITTDGSTGVYIGGLNGNNANGAARFTATDLTIDVQGYSAMGINVQKNSVVDLGTNSTIKTNGDNAHGLWSFGQVSANALTVDVTGAAANGVEVRGGTTTIGADSHISSAQGGGLVTSGSDAIINFTGTAAQRNSIFSGGSYGASAQTATAVVNMQNTDITVDRNGSLALGLWALSGGRITGDSLAITGAAGARGIYAMTNSQIDLTSDLVIDMSTPDQMAIATQHDDGYAASRINASGRMLINGSVLSKGGLINLDMHPGSVWTGSSLSDNVNGGKLDVAMNNSVWNVTSNSNLDTLALSHSTVDFASHGSTAGTFATLNVENLSGNSTFIMRADVVGEGNGVNNKGDLLNISGSSAGNHVLAIRNQGSEATTGNEVLTVVKTTDGAASFSASSQVELGGYLYDVRKNGTNWELYASGTVPEPTPNPEPTPAPAQPPIVNPDPTPEPAPTPKPTTTADAGGNYLNVGYLLNYVENRTLMQRMGDLRNQSKDGNIWLRSYGGSLDSFASGKLSGFDMGYSGIQFGGDKRLSDVMPLYVGLYIGSTHASPDYSGGDGTARSDYMGMYASYMAQNGFYSDLVIKASRQKNSFHVLDSQNNGVNANGTANGMSISLEAGQRFNLSPTGYGFYIEPQTQLTYSHQNEMTMKASNGLNIHLNHYESLLGRASMILGYDITAGNSQLNVYVKTGAIREFSGDTEYLLNNSREKYSFKGNGWNNGVGVSAQYNKQHTFYLEADYTQGNLFDQKQVNGGYRFSF”, for which the “total protein half-life in vivo” value reads like this: under setting [2], over 8 h; under setting [3], 6.81 ± 1.4 h; under setting [4], 5.53 ± 0.71 h; under setting [5], 5.18 ± 1 h; under setting [12], over 16 h; under setting [8], 7.13 h. Further, the “total protein half-life in vivo” value under setting [9] came out at 11.6 ± 0.3 h, the “total protein half-life in vivo” value under setting [10] worked out at 4.97 ± 1.4 h and the “total protein half-life in vivo” value under setting [11] was determined as 12.5 ± 2.7 h.
